Target: T1, Recombinant human E-selectin/Fc chimera (human, UniProt P16581 22-556)
T1 sequence (looked up): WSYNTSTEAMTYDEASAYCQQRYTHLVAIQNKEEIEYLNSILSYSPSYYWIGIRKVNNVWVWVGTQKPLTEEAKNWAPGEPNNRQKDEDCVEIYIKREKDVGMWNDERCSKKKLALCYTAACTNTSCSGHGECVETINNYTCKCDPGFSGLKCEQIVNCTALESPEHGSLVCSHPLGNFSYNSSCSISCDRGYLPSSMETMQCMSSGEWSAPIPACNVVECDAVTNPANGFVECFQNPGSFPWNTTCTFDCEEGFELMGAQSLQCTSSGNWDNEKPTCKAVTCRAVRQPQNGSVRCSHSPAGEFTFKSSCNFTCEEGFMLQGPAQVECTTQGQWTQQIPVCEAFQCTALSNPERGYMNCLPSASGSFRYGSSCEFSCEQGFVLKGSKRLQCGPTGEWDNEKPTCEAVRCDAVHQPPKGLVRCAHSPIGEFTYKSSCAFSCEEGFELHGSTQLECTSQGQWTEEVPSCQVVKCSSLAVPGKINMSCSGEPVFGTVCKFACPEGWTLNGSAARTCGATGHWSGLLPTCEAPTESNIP
Assay: SPR

SETTTGTSSNSSQSTSNSGLAPNPTNATTKAAG (natural protein, UniProt P25063 27-59, looked up) [Recombinant human CD24]
Ka: 3.18e+08 M⁻¹
Kd: 3.4 nM
koff: 0.0016 s⁻¹
kon: 379000 M⁻¹ s⁻¹

— publication PMC3059340 (Analytical chemistry, 2011)
